The values that follow come from US20140286975A1.

One assay concerns the target CD40L (UniProt P29965). Put plainly: cell-based or functional assay.
The target in a further assay is CD40 (UniProt P25942). The experiment in a line: cell-based or functional assay.
Chain of UniProt P25942 (P25942 21-277 limits assumed): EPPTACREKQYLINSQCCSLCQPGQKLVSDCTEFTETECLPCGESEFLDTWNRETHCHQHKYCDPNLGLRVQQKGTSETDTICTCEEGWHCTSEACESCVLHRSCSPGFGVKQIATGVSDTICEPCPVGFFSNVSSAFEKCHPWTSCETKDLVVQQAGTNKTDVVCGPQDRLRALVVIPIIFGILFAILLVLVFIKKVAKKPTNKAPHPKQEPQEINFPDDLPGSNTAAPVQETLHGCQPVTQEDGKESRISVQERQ

Chain of UniProt P29965 (P29965 whole entry): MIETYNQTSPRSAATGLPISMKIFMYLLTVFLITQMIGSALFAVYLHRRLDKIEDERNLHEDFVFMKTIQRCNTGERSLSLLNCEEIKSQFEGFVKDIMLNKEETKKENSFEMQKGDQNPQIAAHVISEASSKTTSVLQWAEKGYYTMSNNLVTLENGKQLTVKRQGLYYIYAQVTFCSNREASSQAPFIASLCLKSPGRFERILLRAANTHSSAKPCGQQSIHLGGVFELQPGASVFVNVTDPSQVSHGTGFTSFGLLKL

Substance “anti-CD40L clone 40804 (R&D Systems) (antibody)” showed an IFN-γ ELISpots upon recall, T-lymphocytes primed and restimulated by doubly-loaded dendritic cells with CD40L of 68 % decrease.

Consider “antiCD40 clone 82111 (R&D Systems) (antibody)”, for which, in the assay with CD40, the IFN-γ ELISpots upon restimulation of T-cells primed by doubly-loaded DCs was 8 % increase; the IFN-γ ELISpots upon restimulation of T-cells primed by lysate-loaded DCs came to 51 % increase; the IFN-γ ELISpots upon restimulation of T-cells primed by mRNA-loaded DCs came out at 86 % increase; the IFN-γ ELISpots upon restimulation, self-antigen controls (fold increase) worked out at 6.
